We go through four molecules from patent US20150337046A1 (Kyowa Kirin, published 2015).

The target in test [1] is T1, soluble FLAG-tagged recombinant hLIGHT (native, untreated) (human, UniProt O43557 66-240).
T1 construct: N-terminal FLAG tag followed by hLIGHT extracellular region Gly66 to Val240; also called soluble hLIGHT; FLAG-hLIGHT
T1 chain: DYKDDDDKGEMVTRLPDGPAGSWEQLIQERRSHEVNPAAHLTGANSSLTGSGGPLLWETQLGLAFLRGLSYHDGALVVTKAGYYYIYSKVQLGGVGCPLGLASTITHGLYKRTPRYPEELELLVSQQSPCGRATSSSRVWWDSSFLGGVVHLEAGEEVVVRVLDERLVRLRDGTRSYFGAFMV
The experiment in a line: dot blot: serial dilutions of native soluble hLIGHT on PVDF, probed with 5 µg/ml antibody, chemiluminescence.
Procedure: Each blot was probed with 5 μg/ml of each primary antibody. […] The blots were washed 3× in 1×TBST followed by super SA-HRP (Amersham Biosciences, Piscataway, N.J.). Chemiluminescence was used for detection using the ECL detection kit (Amersham Biosciences, Piscataway, N.J.) and signal was visualized by exposure to X-OMAT AR imaging film (Kodak, Rochester, N.Y.). […] An anti-M2 (irrelevant antigen) antibody was used as a negative control.
Five micrograms of soluble human LIGHT was either boiled in 2×SDS sample buffer (denatured) or untreated (native), and then both were serially diluted in 6× increments. 5 μl of each hLIGHT dilution was spotted simultaneously onto hydrated 0.2 μm PVDF membranes (Invitrogen, Carlsbad, Calif.) using an 8 multi-channel pipette. […] Each blot was probed with 5 μg/ml of each primary antibody (see below). […] The blots were washed 3×in 1×TBST followed by super SA-HRP (Amersham Biosciences, Piscataway, N.J.). Chemiluminescence was used for detection using the ECL detection kit (Amersham Biosciences, Piscataway, N.J.) and signal was visualized by exposure to X-OMAT AR imaging film (Kodak, Rochester, N.Y.)

The target in test [2] is T2, hLIGHT SNP variant 214E-32S, cell surface-expressed on EL4 cells (human, UniProt O43557 1-240). The test is described as follows: flow cytometry dose titration on EL4 cells expressing the SNP variant.
Procedure: (§1) For FIG. 25A-25D, the geometric mean fluorescence intensity (MFI) was determined and non-linear regression analysis applied.
In test [3] the target is T3, hLIGHT SNP variant 214E-32L, cell surface-expressed on EL4 cells (human, UniProt O43557 1-240).
T3 construct: also called cytoplasmic SNP
T3 chain: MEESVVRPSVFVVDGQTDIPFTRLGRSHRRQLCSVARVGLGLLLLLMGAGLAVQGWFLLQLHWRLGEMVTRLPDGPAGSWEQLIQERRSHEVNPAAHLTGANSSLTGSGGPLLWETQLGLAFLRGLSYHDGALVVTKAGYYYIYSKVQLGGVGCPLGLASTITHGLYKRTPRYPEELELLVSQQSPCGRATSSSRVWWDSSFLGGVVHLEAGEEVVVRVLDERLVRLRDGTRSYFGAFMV
Described as above.
Procedure: as §1

Test [4] has as its target T4, human LIGHT (hLIGHT), cell surface-expressed, full length (human, UniProt O43557 1-240).
T4 construct: also called native hLIGHT on the cell surface; EL4-hLIGHT
The test is described as follows: flow cytometry on HEK 293-hLIGHT cells. A general note: Flow cytometry measures light scatter and fluorescence of single cells or particles in a stream.

For test [5], the target named is T5, hLIGHT SNP variant 214K-32S, cell surface-expressed on EL4 cells (human, UniProt O43557 1-240). The experiment in a line: flow cytometry dose titration on EL4 cells expressing 214K-32S.
Procedure: as §1
In test [6] the target is T5, hLIGHT SNP variant 214K-32S, cell …. The experiment in a line: flow cytometry at one antibody concentration on EL4 SNP 214K cell line.
Source text: (§2) Binding was detected with goat anti-human IgG-APC secondary antibody. Isotype control human IgG was used as a negative control.
The target of test [7] is T2, hLIGHT SNP variant 214E-32S, cell …. The experiment in a line: flow cytometry at 10 µg/ml antibody on EL4 SNP cell lines.
Source text: as §2
The target of test [8] is T4, human LIGHT (hLIGHT), cell …. The experiment in a line: flow cytometry on hLIGHT-transfected cells.

B1: E1 antibody (produced by hybridoma 124 E1, ATCC Accession No. PTA-7729) (antibody, V domains shown)
VH: EVQLVESGGGLVQPGGSLRLSCAASGFTFSRFNMNWVRQAPGKGLEWVSYISSSSYTIYYADSVKGRFTISRDNAKNSLDLQMNSLRDEDTAVYYCARSIAAAFDYWGQGALVTVSS
VL: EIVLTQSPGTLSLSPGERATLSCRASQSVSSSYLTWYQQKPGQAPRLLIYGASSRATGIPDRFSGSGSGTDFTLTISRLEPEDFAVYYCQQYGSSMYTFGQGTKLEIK
notes: Fully human IgG1 purified from hybridoma culture
Take B1: the “lowest limit of detection” value in test [1] was 23 ng.

B2: recombinant single kappa chain antibody of E1 heavy chain paired with Elkappa(B) (antibody, V domains shown)
VH: B1 VH
VL: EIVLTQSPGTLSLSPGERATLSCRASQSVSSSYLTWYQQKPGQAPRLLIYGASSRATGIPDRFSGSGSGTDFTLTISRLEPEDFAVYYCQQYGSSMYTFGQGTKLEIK
notes: also called E1kappa(B); 124Elkappa(B)
B2: the binding result in test [2] is given as “binds”; in test [3] it was “binds”; in test [4], “binds”; in test [5], “no binding”.

B3: E63 antibody (produced by hybridoma 124 E63, ATCC Accession No. PTA-7818) (antibody, V domains shown)
VH: QVQLQESGPGLVKPSETLSLTCIVSGGSVSSGGYYWSWIRQPPGKGLEWIGYIYYSGSTNYNPSLKSRVTISVDTSKNQFSLKLSSVTAADTAVYYCARWITMFRGVGFDPWGQGTLVTVSS
VL: EIVLTQSPDFQSVTPKEKVTITCRASQSIGSSLHWYQQKPDQSPKLLIKYASQSFSGVPSRFSGSGSGTDFTLTINSLEAEDAAAYYCHQSSSLPLTFGGGTKVEIK
notes: a recombinant IgG1 version (E63G1) was also made
For the molecule B3, the “lowest limit of detection” value in test [1] was determined as 3.9 ng. Besides, the figures for the binding result in test [6], in test [7] and in test [8] were “no binding (tested: 10 µg/ml)”, “binds” and “binds”, respectively.

B4: F23 antibody (produced by hybridoma 124 F23, ATCC Accession No. PTA-7728) (antibody, V domains shown)
VH: QVQLQQWGAGLLKPSETLSLTCAVYGGSFSGYYWNWIRQPPGKGLEWIGEINQYNPSLKSRVTISVDTSKNQFSLKLSSVTAADTAVYYCAREIATADKGYYGLDVWGQGTTVTVSS
VL: AIQLTQSPSSLSASVGDRVTITCRASQGISSALAWYQQKPGKAPKLLIYDASSLESGVPSRFSGSGSGTDFTLTISSLQPEDFATYYCQQFNSYPLTFGGGTKVEIK
notes: Residue ranges without leader are those stated in claim 28 (CLM-00028)
In the case of B4, the “lowest limit of detection” value in test [1] turned out to be 23 ng.
